B1: GLTSCR2 (parent)
chain: FQRRNMIEPRERAKFKRKYKVKLV
B2: ZNF232 (parent)
chain: GKAYGWCSELIRHRRVHARKEPSH

Variants of: B1
Test: protein stability index of a GFP-peptide fusion (GPS, HEK-293T) (PSI 1-6); higher = more stable
Details: c terminus: a fixed tail appended
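Note: lentivirally expressed fusions sorted by FACS into six bins by GFP to DsRed ratio, PSI derived from sequencing read proportions per bin multiplied by bin number.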

Protein stability index, by site and new letter:
K22: V 2.03, C 1.51, Y 2.08, R 2.38, H 1.72, S 1.94, M 2.37
Y19: K 3.86, F 2.52, V 2.63, E 3.15, D 3.03, N 2.94, I 2.54
R17: H 1.89, F 1.74, K 2.79, D 2.27, L 2.45, I 2.32, Y 1.65, S 2.77, C 2.18, Q 2.07, G 1.99, A 2.33, P 2.46
V21: Y 2.61, N 2.87, F 2.55, I 2.35, E 2.46, M 2.34
P9: C 2.14, Y 1.67, T 1.99, V 2.19, D 2.15
R12: K 2.41, A 1.87, S 1.84, L 1.79, I 3.04, P 1.72, G 2.6, T 2.15, E 2.5
R10: L 2.47, V 1.58, E 1.98, F 2, M 1.92, Q 1.53, Y 2.17, W 1.76, K 2.28
V24: I 1.91, C 2.25, D 3.12, W 1.31, G 2.45, M 2.25, H 2.15, K 3.09, S 2.62, Y 2.7, P 2.69, A 2.96
F1: A 3.04, Y 2.51, T 3.11, V 2.81, R 3.03, E 2.57, P 3.05
E8: R 1.83, G 2.18, N 2.3, T 2.05, K 2.35, L 2.27, I 2.02, P 2.42, D 2.13, Q 1.64, H 2.33, S 2.04, M 2.34
R3: L 2.37, T 1.79, F 1.75, I 2.17, Q 2.26, P 1.96, H 1.93, M 2.68
N5: P 2.36, C 2.62, Y 2.33, R 2.56, S 2.02, W 2.1
K16: N 2.48, Y 2.03, H 2.32, I 2.64, L 2.53, C 1.87, R 2.73, F 2.4, A 1.62, D 2.63, W 2.7, P 1.28, G 2.18, S 2.42
K18: M 2.22, S 2.63, V 2.78, C 2.05, D 2.64, H 2.29
E11: C 2.36, T 2.59, N 2.6, Q 2.25, K 2.41, I 1.6, V 1.88, H 2.18
Q2: Y 2.08, T 2.65, L 1.94, N 2.42, F 1.58, G 2.3, M 2.7, P 2.06, K 2.21
M6: N 2.27, S 3.25, H 2.33, Q 2.74, I 2.25, E 3.08, L 1.63, T 3.15, W 3.61, F 1.93, A 2.56, R 2.92
R4: I 2.14, A 2.21, S 2.35, Q 2.85, D 1.98, C 2.02, K 1.95, P 1.73
F15: G 2.96, E 2.97, R 3.73, S 3.08, H 3.14, A 2.65, C 2.67, N 2.69
K20: H 2.62, M 2.14, T 2.34, D 2.09, I 2.07, P 1.95, W 2.04, V 1.99
L23: I 2.52, Q 3.43, W 2.15, V 2.13, A 2.72, D 3.1, P 2.12
I7: P 2.25, L 1.99, Q 2.24, M 2.67, Y 1.92, T 2.31, S 3.04, E 2.22, C 2.78
A13: E 2.56, I 2.13, F 1.64, L 2.29
K14: H 2.03, E 2.74, T 2.33, G 1.39, P 1.68, N 2.02, C 1.26, D 2.09, F 2.77, R 2.02

Variants of: B2
Test: as above
Details: c terminus: a fixed tail appended

Protein stability index, by site and new letter:
E21: P 2.79, F 2.04, Q 2.69, G 2.58, M 2.37, N 3.24, I 2.46, R 3.3, L 1.91, W 2.19, H 2.63, D 2.75, T 2.69, Y 2.81, V 3.1, C 2.36, K 3.15, A 2.92, S 3.3
K20: L 1.93, Y 1.86, R 2.12, D 3.45, P 2.62, I 2.05, V 3.22, C 2.6, A 3.19, G 2.86, N 2.58, H 2.97, E 3.07, W 1.82, F 1.9, M 2.18, T 3.28, Q 2.8, S 2.86
P22: E 4.22, F 1.8, I 2.27, K 2.92, H 3.42, D 3.14, N 2.98, C 2.52, Y 3.58, W 1.79, A 3.39, R 3.17, Q 3.38, M 2.3, V 2.82, T 3.02, S 3.21, L 2.93, G 2.71
S23: T 3.03, E 3.92, F 2.43, K 3.49, H 3.16, R 2.93, G 3.32, V 2.82, A 2.61, C 2.58, L 2.54, N 3.05, I 2.48, D 3.66, Q 2.98, W 1.76, Y 2.19, P 2.95, M 2.12
A18: V 2.59, T 3.28, Q 2.81, R 3.28, I 3.04, W 1.83, L 2.13, S 3.37, K 3.19, P 3.33, Y 2.76, M 3.25, N 2.84, G 3, H 2.86
H24: S 3.07, R 3.15, D 3.61, E 2.44, V 3.54, I 2.49, P 3.08, Q 2.25, L 2.68, W 2.03, N 3.65, F 2.65, C 2.78, Y 2.46, G 3.7, A 3.08, K 3.55, M 2.5, T 2.97
R19: W 2.15, A 2.54, P 2.37, N 3.81, M 3.18, K 2.82, F 2.15, T 2.89, V 2.52, E 3.53, Y 1.81, D 3.31, I 3.09, L 1.94, S 2.8, H 2.66, G 3.01, C 2.68, Q 3.44

Source: the supplement of paper PMC10567573
